Sequences and labels used below:
B1: hu125B11 HC1 + hu113F5-F7 LC3 (antibody, V domains shown)
VH: EVQLVESGGGLVQPGGSLRLSCAASRFIFSNYWMNWVRQAPGKGLEWVAQIRLKSDNYATHYAESVKGRFTISRDDSKNTVYLQMNSLRAEDTAVYYCTGGTTYWGQGTLVTVSS
VL: DIQMTQSPSSLSASVGDRVTITCKASQNVGTAVAWYQQKPGKSPKLLIYSASRRFSGVPSRFSGSGSGTDFTLTISSLQPEDFATYYCQQFSTYPYTFGQGTKVEIK
B2: hu125B11 HC1 + hu113F5-F7 LC1 (antibody, V domains shown)
VH: B1 VH
VL: B1 VL with Y87F
B3: hu125B11 HC1 + 125B11 LC4 (antibody, V domains shown)
VH: B1 VH
VL: B1 VL with S43A, R53I, F55Y, S56T, S92R
B4: hu125B11 HC3 + 125B11 LC4 (antibody, V domains shown)
VH: B1 VH with V81L
VL: B1 VL with S43A, R53I, F55Y, S56T, S92R
B5: hu125B11 HC2 + hu113F5-F7 LC1 (antibody, V domains shown)
VH: B1 VH with D76N
VL: B1 VL with Y87F
B6: hu125B11 HC3 + hu113F5-F7 LC4 (antibody, V domains shown)
VH: B1 VH with V81L
VL: B1 VL with S43A
B7: hu125B11 HC1 + 125B11 LC1 (antibody, V domains shown)
VH: B1 VH
VL: B1 VL with R53I, F55Y, S56T, Y87F, S92R
B8: hu125B11 HC3 + hu113F5-F7 LC3 (antibody, V domains shown)
VH: B1 VH with V81L
VL: B1 VL
B9: hu125B11 HC2 + hu113F5-F7 LC4 (antibody, V domains shown)
VH: B1 VH with D76N
VL: B1 VL with S43A
B10: hu125B11 HC4 + hu113F5-F7 LC2 (antibody, V domains shown)
VH: B1 VH with D76N, V81L
VL: B1 VL with S43A, Y87F
B11: hu125B11 HC1 + hu113F5-F7 LC2 (antibody, V domains shown)
VH: B1 VH
VL: B1 VL with S43A, Y87F
B12: hu125B11 HC2 + 125B11 LC3 (antibody, V domains shown)
VH: B1 VH with D76N
VL: B1 VL with R53I, F55Y, S56T, S92R
B13: hu125B11 HC1 + hu113F5-F7 LC4 (antibody, V domains shown)
VH: B1 VH
VL: B1 VL with S43A
B14: hu125B11 HC3 + 125B11 LC2 (antibody, V domains shown)
VH: B1 VH with V81L
VL: B1 VL with S43A, R53I, F55Y, S56T, Y87F, S92R
B15: hu125B11 HC3 + hu113F5-F7 LC1 (antibody, V domains shown)
VH: B1 VH with V81L
VL: B1 VL with Y87F
B16: hu125B11 HC2 + 125B11 LC2 (antibody, V domains shown)
VH: B1 VH with D76N
VL: B1 VL with S43A, R53I, F55Y, S56T, Y87F, S92R
B17: hu125B11 HC4 + hu113F5-F7 LC4 (antibody, V domains shown)
VH: B1 VH with D76N, V81L
VL: B1 VL with S43A
B18: hu125B11 HC2 + 125B11 LC1 (antibody, V domains shown)
VH: B1 VH with D76N
VL: B1 VL with R53I, F55Y, S56T, Y87F, S92R
B19: hu125B11 HC5 + 125B11 LC1 (antibody, V domains shown)
VH: B1 VH with W33Y
VL: B1 VL with R53I, F55Y, S56T, Y87F, S92R
B20: hu125B11 HC4 + hu113F5-F7 LC1 (antibody, V domains shown)
VH: B1 VH with D76N, V81L
VL: B1 VL with Y87F
B21: hu125B11 HC3 + 125B11 LC3 (antibody, V domains shown)
VH: B1 VH with V81L
VL: B1 VL with R53I, F55Y, S56T, S92R
B22: hu125B11 HC2 + 125B11 LC4 (antibody, V domains shown)
VH: B1 VH with D76N
VL: B1 VL with S43A, R53I, F55Y, S56T, S92R
B23: hu125B11 HC1 + 125B11 LC3 (antibody, V domains shown)
VH: B1 VH
VL: B1 VL with R53I, F55Y, S56T, S92R
B24: hu125B11 HC3 + hu113F5-F7 LC2 (antibody, V domains shown)
VH: B1 VH with V81L
VL: B1 VL with S43A, Y87F
B25: hu125B11 HC2 + hu113F5-F7 LC2 (antibody, V domains shown)
VH: B1 VH with D76N
VL: B1 VL with S43A, Y87F
B26: hu125B11 HC2 + hu113F5-F7 LC3 (antibody, V domains shown)
VH: B1 VH with D76N
VL: B1 VL
B27: hu125B11 HC4 + hu113F5-F7 LC3 (antibody, V domains shown)
VH: B1 VH with D76N, V81L
VL: B1 VL
B28: hu125B11 HC4 + 125B11 LC3 (antibody, V domains shown)
VH: B1 VH with D76N, V81L
VL: B1 VL with R53I, F55Y, S56T, S92R
B29: hu125B11 HC4 + 125B11 LC1 (antibody, V domains shown)
VH: B1 VH with D76N, V81L
VL: B1 VL with R53I, F55Y, S56T, Y87F, S92R
B30: hu125B11 HC1 + 125B11 LC2 (antibody, V domains shown)
VH: B1 VH
VL: B1 VL with S43A, R53I, F55Y, S56T, Y87F, S92R
B31: 63H3-D8 (antibody, V domains shown)
VH: QIQLVQSGPELKKPGETVKISCKASGYTFTSHGMSWVKQAPGKGLKWMGWINTYSGVPTYADDFKGRFAFSLETSASTAYLQINNLKNEDTATYFCARSELSWFAYWGQGTLVTVSA
VL: DIVMTQSPATLSVTPGDRVSLSCRASQSISDYLHWYQQKSHESPRLLIKYASQSISGIPSRFSGSGSGSDFTLSINSVEPEDVGVYYCQNGHSFPYTFGGGTKLEIK
notes: hybridoma supernatant
B32: 64B9-F12 (antibody, V domains shown)
VH: B31 VH with K12R, S31T, H32Y, K43E, V57M, S77R
VL: B31 VL with S93N
notes: hybridoma supernatant
B33: 61E7-C4 (antibody, V domains shown)
VH: EVQLVESGGDLVKPGGSLKVSCVASGFTFRSYGMSWVRQTPDKRLDWVATISSGGNYTYYPDSVKGRFTISRDNAKNTLYLQMSSLKSEDTAMYYCASSYSGAMDYWGQGTSVTVSS
VL: DTVMTQSPLSLPVSLGDQASISCRSSQSIVHSNGNTYLEWYLQKPGQSPKLLIYTVSNRFSGVPDRFSGSGSGTDFTLKISRVEAEDLGVYYCFQGSHVPWTFGGGTKLEIK
notes: hybridoma supernatant
B34: 19F8-B1 (antibody, V domains shown)
VH: EVQLQQSGPELVKPGASVKMSCKASGYTFTDYYMKWVKQSHGKSLEWIGDLNPNNGGTLYNQKFKGQATLTVDKSSSTAYMQFNSLTSEDSAVYYCARSAGYGDSFAYWGQGTLVTVSA
VL: B33 VL with T2V, V3L, S7T, S28N, T55K, V90I, Y92F, W101P
notes: hybridoma supernatant
B35: 24A11-D5 (antibody, V domains shown)
VH: B34 VH with N54K, T58I, L59I, F83L, Y94F, A100G
VL: B33 VL with T2V, V3L, S7T, S28N, T55K, V90I, Y92F, W101P
notes: hybridoma supernatant
B36: 26C1-C8 (antibody, V domains shown)
VH: EVHLQQSGAELVRSGASVKLSCTASGFNIKDYYMYWVKQRPEQGLEWIGWIDPENGDTEYFPKFQGKATMTADTSSKTAYLQLSSLTSEDTAVYYCNAWRARATNSALDYWGQGTSVTVSS
VL: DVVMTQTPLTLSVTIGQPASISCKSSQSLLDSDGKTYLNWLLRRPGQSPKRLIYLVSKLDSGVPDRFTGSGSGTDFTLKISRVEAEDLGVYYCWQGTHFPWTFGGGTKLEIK
notes: hybridoma supernatant

Where a chain is given by its changes, count along the chain named. Where “and” joins values, the source holds several entries; their conditions need not be identical. Equal values may be shown once.

T2 sequence (P10636 other isoform, or with tags, fused parts or gaps limits assumed): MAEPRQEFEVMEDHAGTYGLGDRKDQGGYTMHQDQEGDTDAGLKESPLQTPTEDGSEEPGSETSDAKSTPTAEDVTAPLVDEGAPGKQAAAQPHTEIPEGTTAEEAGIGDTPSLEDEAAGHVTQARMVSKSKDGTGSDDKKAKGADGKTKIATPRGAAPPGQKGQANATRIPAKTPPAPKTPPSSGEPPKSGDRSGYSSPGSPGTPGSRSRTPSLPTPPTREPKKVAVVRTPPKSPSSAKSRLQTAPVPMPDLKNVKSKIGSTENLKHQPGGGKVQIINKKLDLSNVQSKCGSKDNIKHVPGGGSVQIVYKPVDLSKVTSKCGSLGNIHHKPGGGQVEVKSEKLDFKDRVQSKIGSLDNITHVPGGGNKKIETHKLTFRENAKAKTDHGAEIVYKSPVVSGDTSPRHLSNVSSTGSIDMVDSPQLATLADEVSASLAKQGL

One assay deals with T1, recombinant human Tau monomer, 2N4R isoform (amino acids 2-441) (human, UniProt P10636-8 2-441).
T1 construct: range 2-441; N-terminal His-tag removed with TEV protease; also called monomeric Tau
T1 sequence (P10636 other isoform, or with tags, fused parts or gaps limits assumed): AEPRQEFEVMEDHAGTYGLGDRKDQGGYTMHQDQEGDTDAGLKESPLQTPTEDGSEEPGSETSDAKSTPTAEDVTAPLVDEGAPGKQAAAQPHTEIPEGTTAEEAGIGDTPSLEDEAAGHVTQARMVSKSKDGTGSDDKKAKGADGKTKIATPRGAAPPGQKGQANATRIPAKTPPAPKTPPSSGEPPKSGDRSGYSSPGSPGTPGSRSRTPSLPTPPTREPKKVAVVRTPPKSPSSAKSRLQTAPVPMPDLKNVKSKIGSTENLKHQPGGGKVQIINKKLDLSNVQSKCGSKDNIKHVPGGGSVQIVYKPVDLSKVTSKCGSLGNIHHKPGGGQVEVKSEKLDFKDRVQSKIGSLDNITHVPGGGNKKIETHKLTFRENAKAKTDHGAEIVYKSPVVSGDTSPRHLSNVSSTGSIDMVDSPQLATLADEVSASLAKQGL
Briefly: SPR screen, hIgG captured, Tau monomer analyte. The text has this: Antibody 125B11-H3 was humanized onto VH3 and Vκ1 consensus frameworks. The heavy chain graft included murine residues at position 78 (Kabat numbering system). The Vκ1 graft included murine residues in framework positions 43 and 87. The light chain of 113F5-F7 was also humanized onto the Vκ1 framework, with additional murine residues at framework positions 43 and 87. Humanized variant heavy chains (125B11) and light chains (125B11 and 113F5-F7) were co-transfected in multiple combinations and purified in 96-well format as described above. Humanized variants were then screened for affinity for human Tau monomer using the Biacore human IgG capture kit, a Series S CM5 chip and a Biacore T200 instrument. Antibodies were diluted to 2 μg/ml and captured for 15 seconds at 10 μl/min. Association and dissociation of 0, 100 and 500 nM human Tau monomer in HBSP was monitored for 180s and 300s respectively at a flow rate of 40 μl/min. A 1:1 binding model was applied to the results (Table 9).
Usually Kd stands for the equilibrium constant for the complex coming apart. Consider B1, for which the Kd worked out at 61 nM.

As for B2, the Kd stood at 57 nM. With B3, the Kd was determined as 23 nM. As to B4, the Kd worked out at 20 nM. On the same count and under the same terms, to B5 belongs 61 nM; to B6, 65 nM. As for B7, the Kd is 16 nM and 19 nM. For the molecule B8, the Kd turned out to be 54 nM.

For the molecule B9, the Kd is 77 nM. In the case of B10, the Kd turned out to be 47 nM. For the molecule B11, the dissociation constant (Kd) was 67 nM. Take B12: the Kd was determined as 23 nM. For the molecule B13, the Kd was found to be 71 nM.

On to B14, for which the dissociation constant (Kd) is 19 nM. In the case of B15, the Kd was found to be 54 nM. In the case of B16, the Kd worked out at 20 nM.

For the molecule B17, the Kd came to 51 nM. With B18, the Kd was 18 nM. B19: the Kd worked out at 85 nM. As to B20, the Kd came to 44 nM. Regarding B21, the Kd was 20 nM. As for B22, the Kd was found to be 22 nM. In the case of B23, the Kd is 21 nM.

For B24, the dissociation constant (Kd) came out at 55 nM. Regarding B25, the Kd came out at 68 nM. B26: the Kd stood at 64 nM. Consider B27, for which the equilibrium dissociation constant (Kd) came out at 47 nM. Still for that read-out and setting: for B28 the value was 15 nM; for B29, 15 nM; for B30, 20 nM.

The next assay addresses T2, full-length human Tau (flTau) (human, UniProt P10636-8 1-441).
T2 construct: range 1-441; bought (SignalChem); also called human Tau-441
Briefly: SPR, hybridoma Ab on anti-IgG chip, flTau analyte. The protocol: Affinity of non-purified antibodies in serum-free hybridoma supernatants was estimated by surface plasmon resonance using a Biacore T-100 instrument (GE Healthcare, United Kingdom). Antibodies were immobilized onto an anti-IgG biosensor chip, and flTau (SignalChem, Canada) was used as the target analyte. Kinetic analysis was done using a 1:1 Langmuir fit model.
For affinity measurements to flTau, antibodies were measured using SPR on a Biacore instrument, with the KDs determined. Biacore affinity measurements were done by immobilizing antibodies on an anti-IgG chip and using flTau as the target analyte.
For orientation: SPR reads the build-up and loss of mass on a sensor chip optically.
B31 returned a dissociation constant Kd of 0.5 nM. Regarding B32, the Kd came out at 2 nM. With B33, the affinity, expressed as Kd, was 3.3 nM.

The molecule B34 showed a dissociation constant (Kd) of 2.9 nM. B35 gave a Kd of 2 nM. The same measure, in the same setting: to B36 belongs 4.3 nM.

For the origin of these results see patent US20190367592A1 (AC IMMUNE, published 2019).
